Source: patent US20190153061A1

B1: BCMA-1 CAR (139100) (protein)
chain: QVQLVQSGAEVRKTGASVKVSCKASGYIFDNFGINWVRQAPGQGLEWMGWINPKNNNTNYAQKFQGRVTITADESTNTAYMEVSSLRSEDTAVYYCARGPYYYQSYMDVWGQGTMVTVSSASGGGGSGGRASGGGGSDIVMTQTPLSLPVTPGEPASISCRSSQSLLHSNGYNYLNWYLQKPGQSPQLLIYLGSKRASGVPDRFSGSGSGTDFTLHITRVGAEDVGVYYCMQALQTPYTFGQGTKLEIKTTTPAPRPPTPAPTIASQPLSLRPEACRPAAGGAVHTRGLDFACDIYIWAPLAGTCGVLLLSLVITLYCKRGRKKLLYIFKQPFMRPVQTTQEEDGCSCRFPEEEEGGCELRVKFSRSADAPAYKQGQNQLYNELNLGRREEYDVLDKRRGRDPEMGGKPRRKNPQEGLYNELQKDKMAEAYSEIGMKGERRRGKGHDGLYQGLSTATKDTYDALHMQALPPR
B2: BCMA-4 CAR (139103) (protein)
chain: QVQLVESGGGLVQPGRSLRLSCAASGFTFSNYAMSWVRQAPGKGLGWVSGISRSGENTYYADSVKGRFTISRDNSKNTLYLQMNSLRDEDTAVYYCARSPAHYYGGMDVWGQGTTVTVSSASGGGGSGGRASGGGGSDIVLTQSPGTLSLSPGERATLSCRASQSISSSFLAWYQQKPGQAPRLLIYGASRRATGIPDRFSGSGSGTDFTLTISRLEPEDSAVYYCQQYHSSPSWTFGQGTKLEIKTTTPAPRPPTPAPTIASQPLSLRPEACRPAAGGAVHTRGLDFACDIYIWAPLAGTCGVLLLSLVITLYCKRGRKKLLYIFKQPFMRPVQTTQEEDGCSCRFPEEEEGGCELRVKFSRSADAPAYKQGQNQLYNELNLGRREEYDVLDKRRGRDPEMGGKPRRKNPQEGLYNELQKDKMAEAYSEIGMKGERRRGKGHDGLYQGLSTATKDTYDALHMQALPPR
B3: BCMA-5 CAR (139104) (protein)
chain: EVQLLETGGGLVQPGGSLRLSCAVSGFALSNHGMSWVRRAPGKGLEWVSGIVYSGSTYYAASVKGRFTISRDNSRNTLYLQMNSLRPEDTAIYYCSAHGGESDVWGQGTTVTVSSASGGGGSGGRASGGGGSEIVLTQSPATLSVSPGESATLSCRASQSVSSNLAWYQQKPGQAPRLLIYGASTRASGIPDRFSGSGSGTDFTLTISSLQAEDVAVYYCQQYGSSLTFGGGTKVEIKTTTPAPRPPTPAPTIASQPLSLRPEACRPAAGGAVHTRGLDFACDIYIWAPLAGTCGVLLLSLVITLYCKRGRKKLLYIFKQPFMRPVQTTQEEDGCSCRFPEEEEGGCELRVKFSRSADAPAYKQGQNQLYNELNLGRREEYDVLDKRRGRDPEMGGKPRRKNPQEGLYNELQKDKMAEAYSEIGMKGERRRGKGHDGLYQGLSTATKDTYDALHMQALPPR
B4: BCMA-7 CAR (139106) (protein)
chain: EVQLVETGGGLVQPGGSLRLSCAVSGFALSNHGMSWVRRAPGKGLEWVSGIVYSGSTYYAASVKGRFTISRDNSRNTLYLQMNSLRPEDTAIYYCSAHGGESDVWGQGTTVTVSSASGGGGSGGRASGGGGSEIVMTQSPATLSVSPGERATLSCRASQSVSSKLAWYQQKPGQAPRLLMYGASIRATGIPDRFSGSGSGTEFTLTISSLEPEDFAVYYCQQYGSSSWTFGQGTKVEIKTTTPAPRPPTPAPTIASQPLSLRPEACRPAAGGAVHTRGLDFACDIYIWAPLAGTCGVLLLSLVITLYCKRGRKKLLYIFKQPFMRPVQTTQEEDGCSCRFPEEEEGGCELRVKFSRSADAPAYKQGQNQLYNELNLGRREEYDVLDKRRGRDPEMGGKPRRKNPQEGLYNELQKDKMAEAYSEIGMKGERRRGKGHDGLYQGLSTATKDTYDALHMQALPPR

molecular target: B-cell maturation antigen (BCMA) expressed on cells (human), Q02223; assay: cell-based or functional assay
Sequence (Q02223 whole entry): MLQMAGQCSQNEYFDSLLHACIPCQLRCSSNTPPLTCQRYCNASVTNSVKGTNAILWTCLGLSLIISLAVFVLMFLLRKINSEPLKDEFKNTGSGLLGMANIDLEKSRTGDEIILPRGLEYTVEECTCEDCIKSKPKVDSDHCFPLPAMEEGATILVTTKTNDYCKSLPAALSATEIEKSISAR

| Binder | Cell killing EC50; KMS11-luc | JNL binding assay, ratio to K562; K562-BCMA | JNL binding assay, ratio to K562; NCI-H929 | JNL binding assay, ratio to K562; RPMI 8226 | Proliferation, CD3 ratio to no target; K562-BCMA | Proliferation, CD3 ratio to no target; KMS11-luc | Proliferation, CD3 ratio to no target; NCI-H929 | Proliferation, CD3 ratio to no target; RPMI 8226 | Proliferation, CD4 ratio to no target; K562-BCMA | Proliferation, CD4 ratio to no target; KMS11-luc |
| --- | --- | --- | --- | --- | --- | --- | --- | --- | --- | --- |
| B1 | 0.68 not printed | 4.6 | 4.55 | 5.06 | 1.59 | 1.38 | 4.97 | 2.96 | 1.57 | 1.24 |
| B2 | 0.13 not printed | 4.47 | 3.31 | 6.25 | 7.37 | 8.63 | 8.64 | 8.14 | 9.21 | 8.6 |
| B3 | 0.21 not printed | 2.34 | 2.34 | 2.4 | 1.62 | 1.61 | 1.72 | 1.73 | 2.19 | 1.9 |
| B4 | 0.15 not printed | 2.55 | 2.36 | 2.77 | 1.72 | 1.71 | 1.8 | 1.62 | 2.17 | 1.96 |

same assay, conditions: not given

| Binder | Proliferation, CD4 ratio to no target; NCI-H929 | Proliferation, CD4 ratio to no target; RPMI 8226 | Proliferation, CD8 ratio to no target; K562-BCMA | Proliferation, CD8 ratio to no target; KMS11-luc | Proliferation, CD8 ratio to no target; NCI-H929 | Proliferation, CD8 ratio to no target; RPMI 8226 |
| --- | --- | --- | --- | --- | --- | --- |
| B1 | 5.57 | 2.43 | 1.61 | 1.56 | 4.14 | 3.58 |
| B2 | 9.86 | 10.1 | 5.66 | 8.74 | 7.42 | 6.19 |
| B3 | 2.23 | 2.15 | 0.99 | 1.27 | 1.11 | 1.25 |
| B4 | 2.23 | 1.91 | 1.08 | 1.35 | 1.18 | 1.19 |
